Experiment [1] addresses Myc-tagged Rhinolophus affinis ISG15 S77C (Rhinolophus affinis). Kind of experiment: cross-linking.
Experiment [2] concerns the target Myc-tagged wild-type Mops condylurus ISG15 (Mops condylurus). Kind of experiment: cross-linking.

In experiment [1], “Myc-tagged Rhinolophus affinis ISG15 S77C (natural protein)” came in with a stoichiometry N of 2.
Turning to “Myc-tagged wild-type Mops condylurus ISG15 (natural protein)”, in experiment [2], the stoichiometry N was determined as 2.

The stoichiometry N is the number of molecules, sites or subunits per partner or assembly.

The values are drawn from PMC11821529.
